Results as given in publication doi:10.1101/2020.06.11.146753, “Insights into glycan import by a prominent gut symbiont” (bioRxiv, 2020).

What was measured:
Bt1763 (SusC) = molecular target: T1, Bt1763 (SusC) (Bacteroides thetaiotaomicron VPI-5482, UniProt Q8A6W3 26-1041); test: crystal structure; Bt1762-63 purified from B. theta in 10 mM Hepes/100 mM NaCl/0.4% C8E4 pH 7.5; crystallised without ligand and after incubation with 2.5 mM β2,6 FOS; details: both partners purified
T1 construct: Bt1763, SusC TonB-dependent transporter of the levan PUL, Bacteroides thetaiotaomicron VPI-5482; Untagged; isolated through the His6 tag on Bt1762; NTE invisible in the X-ray structures; plug domain absent from closed, empty transporters; also called SusC TonB-dependent transporter; source: B. thetaiotaomicron (Bt1762-his strain) grown on MM-fructose, outer membrane fraction in LDAO; purified …
T1 sequence (looked up): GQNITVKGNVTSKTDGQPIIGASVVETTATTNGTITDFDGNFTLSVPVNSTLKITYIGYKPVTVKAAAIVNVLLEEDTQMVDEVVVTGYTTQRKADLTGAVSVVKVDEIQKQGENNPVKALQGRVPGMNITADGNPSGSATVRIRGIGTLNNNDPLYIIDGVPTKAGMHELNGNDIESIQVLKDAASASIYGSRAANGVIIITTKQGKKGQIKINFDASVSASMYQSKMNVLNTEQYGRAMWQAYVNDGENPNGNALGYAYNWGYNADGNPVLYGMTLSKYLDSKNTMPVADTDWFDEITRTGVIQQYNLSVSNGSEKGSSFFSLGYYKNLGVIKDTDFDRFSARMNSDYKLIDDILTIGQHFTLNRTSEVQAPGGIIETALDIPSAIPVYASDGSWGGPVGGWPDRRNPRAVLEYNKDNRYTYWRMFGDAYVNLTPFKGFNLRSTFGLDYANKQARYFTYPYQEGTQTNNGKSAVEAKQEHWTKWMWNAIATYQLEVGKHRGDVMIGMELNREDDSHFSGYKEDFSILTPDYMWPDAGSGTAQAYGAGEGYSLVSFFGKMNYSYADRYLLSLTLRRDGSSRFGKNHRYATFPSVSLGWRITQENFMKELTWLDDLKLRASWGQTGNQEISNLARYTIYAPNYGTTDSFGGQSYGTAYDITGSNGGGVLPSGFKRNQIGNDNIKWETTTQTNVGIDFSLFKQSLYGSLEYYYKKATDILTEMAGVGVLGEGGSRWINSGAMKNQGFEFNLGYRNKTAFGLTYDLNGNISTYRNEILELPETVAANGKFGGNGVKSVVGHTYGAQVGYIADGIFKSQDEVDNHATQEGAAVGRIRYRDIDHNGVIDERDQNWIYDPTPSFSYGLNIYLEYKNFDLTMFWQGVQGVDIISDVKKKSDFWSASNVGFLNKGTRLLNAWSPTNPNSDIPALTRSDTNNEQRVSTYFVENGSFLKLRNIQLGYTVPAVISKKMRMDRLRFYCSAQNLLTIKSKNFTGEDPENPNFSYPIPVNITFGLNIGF

[1] = molecular target: the molecule itself; test: native MS; purified Bt1762-63 in 0.5% C8E4, 0.2 M ammonium acetate, pH 6.9; ligand-free and with FOS fractions

B1: Bt1762 (SusD), C-terminal His6 tag, from the B. theta Bt1762-his strain (natural protein, Bacteroides thetaiotaomicron VPI-5482, UniProt Q8A6W4 19-570, looked up)
chain: CDDFLDRQVPQGIVTGDQIASPEYVDNLVISAYAIWATGDDINSSFSLWNYDVRSDDCYKGGSGTEDGGVFNALEISKGINTTDWNINDIWKRLYQCITRANTALQSLDQMDEKTYPLKNQRIAEMRFLRGHAHFMLKQLFKKIVIVNDENMEPDAYNELSNTTYTNDEQWQKIADDFQFAYDNLPEVQIEKGRPAQAAAAAYLAKTYLYKAYRQDGADNALTGINEEDLKQVVKYTDPLIMAKGGYGLETDYSMNFLPQYENGAESVWAIQYSINDGTYNGNLNWGMGLTTPQILGCCDFHKPSQNLVNAFKTDSQGKPLFSTYDNENYEVATDNVDPRLFHTVGMPGFPYKYNEGYIIQKNDDWSRSKGLYGYYVSLKENVDPDCDCLKKGSYWASSLNHIVIRYADVLLMRAEALIQLNDGRITDAISLINEVRSRAAGSTMLIFNYKEDYGVNFKVTPYDLKAYAQDEAMKMLKWERRVEFGMESSRFFDLVRWGEAKDVINAYYVTEASRCSIYKNAGFTENKNEYLPVPFEQISASNGNYTQNFGW
modifications: lipid anchor (lipoprotein)
notes: Chromosomally tagged, expressed natively; always isolated together with Bt1763; also called SusD lid; WT Bt1762; source: B. thetaiotaomicron (Bt1762-his strain) grown on MM-fructose, outer membrane fraction in LDAO; purified with Bt1763 (IMAC, SEC); not shown: His6, C-terminal, kept
B1: binds (Bt1763 (SusC)).

B2: Bt1762-63 SusCD complex (one Bt1762 and one Bt1763), the unit that pairs into SusC2D2 (complex, Bacteroides thetaiotaomicron VPI-5482)
chain 1: B1 chain
chain 2: T1 sequence (looked up)
modifications: lipid anchor (lipoprotein)
notes: Bt1762 (SusD), Bacteroides thetaiotaomicron VPI-5482; as the chain of m1. numbers count on: the mature protein; Bt1763 (SusC), Bacteroides thetaiotaomicron VPI-5482; as the chain of m2. numbers count on: the mature protein; Used for the self-association of the SusCD unit into the SusC2D2 dimer; also called Bt1762-Bt1763; SusCD monomer; source: B. thetaiotaomicron (Bt1762-his strain) grown on …
B2 was tested, and the “stoichiometry N” value [1] was 2.
